{"source": "paper PMC3391682", "about": "“Structure of the Glycosyltransferase EryCIII in Complex with its Activating P450 Homologue EryCII” (Journal of Molecular Biology, 2012)", "binders": {"B1": {"name": "EryCII, activating P450 homologue (auxiliary protein) of EryCIII (natural protein)", "chain": "MTTTDRAGLGRQLQMIRGLHWGYGSNGDPYPMLLCGHDDDPQRRYRSMRESGVRRSRTETWVVADHATARQVLDDPAFTRATGRTPEWMRAAGAPPAEWAQPFRDVHAASWEGEVPDVGELAESFAGLLPGAGARLDLVGDFAWQVPVQGMTAVLGAAGVLRGAAWDARVSLDAQLSPQQLAVTEAAVAALPADPALRALFAGAEMTANTVVDAVLAVSAEPGLAERIADDPAAAQRTVAEVLRLHPALHLERRTATAEVRLGEHVIGEGEEVVVVVAAANRDPEVFAEPDRLDVDRPDADRALSAHRGHPGRLEELVTALATAALRAAAKALPGLTPSGPVVRRRRSPVLRGTNRCPVEL", "notes": "printed mass 40.7 kDa; also called helper protein"}}, "biological_target": "T1, glycosyltransferase EryCIII (UniProt A4F7P3 1-421)", "T1 construct": "EryCIII, glycosyltransferase that attaches TDP-D-desosamine to 3-alpha-mycarosylerythronolide B in erythromycin D biosynthesis; printed mass 48.1 kDa (47,961 Da measured, loss of the N-terminal methionine); Se-Met-labelled protein was used for phasing; also called GT EryCIII; source: E. coli BL21 (DE3) codon plus RP, co-expressed with the S. coelicolor chaperonins GroEL1, GroES and GroEL2, …", "T1 sequence (looked up)": "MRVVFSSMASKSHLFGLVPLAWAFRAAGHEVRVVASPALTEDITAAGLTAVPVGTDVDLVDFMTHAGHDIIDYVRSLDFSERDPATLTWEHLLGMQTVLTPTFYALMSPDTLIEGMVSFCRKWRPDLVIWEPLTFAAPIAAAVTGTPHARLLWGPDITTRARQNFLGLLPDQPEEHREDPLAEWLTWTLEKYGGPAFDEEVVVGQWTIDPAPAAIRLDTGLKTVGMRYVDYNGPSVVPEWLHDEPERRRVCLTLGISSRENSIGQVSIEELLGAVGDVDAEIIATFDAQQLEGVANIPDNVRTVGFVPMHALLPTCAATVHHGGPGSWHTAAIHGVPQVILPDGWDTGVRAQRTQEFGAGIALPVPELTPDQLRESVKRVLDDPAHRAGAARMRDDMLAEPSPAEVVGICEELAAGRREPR", "assay": "AUC; sedimentation velocity of the co-expressed, co-purified EryCIII·EryCII complex in 2 mM DTT, 293 K, 50,000 r.p.m.; c(S) and c(M) analysis, taken together with band intensities on a denaturing polyacrylamide gel", "conditions": "both partners purified"}
{"binder": "B1", "values": [{"measurement": "stoichiometry N", "value": 1}]}
